From PMC11145777

Biological target: native H3 (human (endogenous in HeLa)) (UniProt P68431)
Assay: co-IP; native (unfixed) ChIP on mono-nucleosomes: native CpA from untransfected HeLa, GFP-CpA and HA-CpA from transfected HeLa, Western for H1.5 (three antibodies) and H2A; H3 ChIP done sequentially after the native CpA ChIP

fold affinity against native CpA: 13 fold
Substance: linker histone H1.5 (from UniProt P16401 1-226) (natural protein)
